Measured values: publication PMC6774396 (Frontiers in Immunology, 2019)
Changes are numbered by the printed parent chain.

B1: WT: wild-type human L-selectin, C-terminally tagged with GFP or RFP, expressed in THP-1 cells (protein)
chain: WTYHYSEKPMNWQRARRFCRDNYTDLVAIQNKAEIEYLEKTLPFSRSYYWIGIRKIGGIWTWVGTNKSLTEEAENWGDGEPNNKKNKEDCVEIYIKRNKDAGKWNDDACHKLKAALCYTASCQPWSCSGHGECVEIINNYTCNCDVGYYGPQCQFVIQCEPLEAPELGTMDCTHPLGNFSFSSQCAFSCSEGTNLTGIEETTCGPFGNWSSPEPTCQVIQCEPLSAPDLGIMNCSHPLASFSFTSACTFICSEGTELIGKKKTICESSGIWSNPSPICQKLDKSFSMIKEGDYNPLFIPVAVMVTAFSGLAFIIWLARRLKKGKKSKRSMNDPY
modifications: left off: eGFP (donor copy) or mCherry (acceptor copy, called RFP), C-terminal, kept
B2: SSAA: L-selectin with Ser^364 and Ser^367 both mutated to alanines (protein)
chain: B1 chain with S326A, S329A
modifications: left off: eGFP (donor copy) or mCherry (acceptor copy, called RFP), C-terminal, kept

How the values were obtained:
[1] = test system: THP-1 cells over TNF-α-activated HUVEC; test: L-selectin-GFP/RFP clustering in mid-TEM under flow, FLIM/FRET; assay type: cell-based, human; settings: 15 min perfusion at 1.5 dyn/cm^2, fixed in mid-TEM; Top = non-transmigrated uropods, Base = transmigrated pseudopods; at least 45 cells, 3 experiments; no TAPI-0
Method: (A) Line scanning confocal microscopic image of THP-1 cells, stably expressing GFP, captured in mid-TEM—following 15 min of perfusion over TNF-α-activated HUVEC monolayers. […] “Top” and “Base,” respectively, represent the apical and basolateral aspect of the endothelium (x63 objective lens, Leica SP5). Scale bar = 24 μm. (B,C) THP-1 cells expressing WT, SSAA, or SSDD L-selectin-GFP/RFP were perfused over TNF-α-activated HUVEC and fixed after 15 min of perfusion. […] Lifetime images taken of at least 45 cells and analyzed over 3 independent experiments was quantified and expressed as FRET efficiency. Images representative of three independent experiments, where at least 45 cells of each group was analyzed at two optical sections, Top and Base, as indicated in the cartoon of a yellow monocyte captured in mid-TEM crossing a red endothelium. Individual GFP channel and lifetime images are provided for each cell line. The lifetime of fluorescence is expressed in a pseudocolour scale from red (low lifetime with a very high probability of interaction) to blue (high lifetime with a very low probability of interaction). Statistics: unpaired student t-test ***p ≤ 0.001.
Cells expressing WT L-selectin-GFP/RFP were treated for 30 min with 10 μM TAPI-0 and subsequently perfused over TNF-activated HUVEC monolayers for 15 min prior to fixation and analysis for FRET by FLIM (see Materials and Methods for more detail). […] (B) Images representative of three independent experiments, where at least 45 cells of each group were analyzed at two optical sections–non-transmigrated uropods (Top) and transmigrated pseudopods (Base). GFP fluorescence channel and lifetime images are provided for each cell line. The lifetime of fluorescence is expressed in a pseudocolour scale from red (low lifetime with a very high probability of interaction) to blue (high lifetime with a very low probability of interaction). […]
FLIM measurement of FRET was performed with a multiphoton microscope system as described previously ([8], [23]). […] Fluorescence lifetime imaging capability was provided by time-correlated, single-photon counting electronics (SPC 700; Becker & Hickl). […] Data were analyzed as previously described ([65]). The FRET efficiency is related to the molecular separation of donor and acceptor and the fluorescence lifetime of the interacting fraction by: […]
where ηFRET is the FRET efficiency, R0 is the Förster radius, r is the molecular separation, τFRET is the lifetime of the interacting fraction and τd is the lifetime of the donor in the absence of an acceptor. The donor- only control is used as the reference against which all of other lifetimes are calculated in each experiment. τFRET and τd can also be taken to be the lifetime of the interacting fraction and non-interacting fraction, respectively. […]

[2] = test system: THP-1 cells on immobilized biglycan; settings: isolated THP-1 cells, L-selectin-GFP/RFP; cited from earlier work
From the text: This figure pieces together data from our recently published work ([8], [23]) with our data from this study. (A,B) In cells expressing WT L-selectin, clustering is only witnessed within pseudopods of transmigrating cells. […] Moesin-driven clustering is a pre-requisite for L-selectin shedding, and so the balance of L-select ...

Molecule	subcellular distribution of L-selectin clustering during TEM (FLIM/FRET) [1]	clustering on immobilized biglycan [2]
B1	clustered exclusively within transmigrated pseudopods	can cluster when seeded onto immobilized biglycan
B2	phenocopied the subcellular distribution of WT L-selectin	–
